Measured values as given in patent US20230374148A1, “BINDING MOLECULES THAT MULTIMERISE CD45” (UCB BIOPHARMA SRL, priority 2020, published 2023).

B1: 4133-6294 BYbe: anti-CD45 BYbe (Fab-scFv): 4133 Fab HC-G4S linker-6294 scFv heavy chain paired with 4133 light chain (antibody)
heavy: QEQLVESGGGLVQPEGSLTLTCTASGFSFSGNYYMCWVRQAPGKGLEWIGCLYTGSSGSTYYASWAKGRFTISKTSSTTVTLQMTSLTAADTATYFCARDLGYEIDGYGGLWGQGTLVTVSSGQPKAPSVFPLAPCCGDTPSSTVTLGCLVKGYLPEPVTVTWNSGTLTNGVRTFPSVRQSSGLYSLSSVVSVTSSSQPVTCNVAHPATNTKVDKTVAPSTCSKPGGGGSGGGGSEVQLVESGAELARPGASVKMSCKASGYTFTSYTMHWVKQRPGQCLEWIGYINPSSGYTEYNQKFKDKTTLTADKSSSTAYLQLSSLTSEDSAVYYCARVGDGFYPSWLAYWGQGTLVTVSSGGGGSGGGGSGGGGSGGGGSDIQMTQSPKFLLVSAGDRVTITCKASQSVRNDVAWYQQKPGQSPKLLIFYASKRYTGVPDRFTGSGYGTDFTFTISTVQAEDLAVYFCQQDYSSPTTFGCGTKLEIK
light: AQVLTQTPSPVSAVVGGTVSISCQASQSVYNNNNLSWYQQKPGQPPKLLIYDASKLASGVPSRFKGSGSGTQFTLTISGVQCDDAATYYCLGGYYSSGWYFAFGGGTKVVVKRTPVAPTVLIFPPAADQVATGTVTIVCVANKYFPDVTVTWEVDGTTQTTGIENSKTPQNSADCTYNLSSTLTLTSTQYNSHKEYTCKVTQGTTSVVQSFNRGDC

System: Human whole blood
Experiment: Cytokine release in whole blood at 24 hrs, MSD assay
Assay type: cell-based
Method: Human whole blood (Lithium heparin tubes) was taken from one donor (HTA #031219-06) at UCB Pharma Slough, UK according to approved ethical sample collection protocol.
In a Greiner 96-well non-binding microplate, Fab-X and Fab-Y combination 6294-X/4133-Y was added to PBS to give a Fab-KD-Fab concentration of 2000 nM. Similarly, stocks of 4133-6294 BYbe and NegCtrl BYbe were prepared in PBS at 2000 nM. The microplate was incubated for 1 hr at 37° C., 5% CO2. Following the incubation, Fab-KD-Fab and BYbe reagents were then serially diluted in PBS 1 in 5, seven times to produce to form an 8-point dose curve.
12.5 μl of Fab-KD-Fab or BYbe dilution was transferred into Corning Costar 96-well, cell culture treated, U-shaped-bottom microplate (cat no. 07-200-95) and 237.5 μl of whole blood added to each well. Final well concentrations of Fab-KD-Fab or BYbes were 100-0.00128 nM. […]
Measurement of cytokines was carried out using the V-PLEX Human Proinflammatory Panel I (4-Plex) (IFN-γ, IL-1β, IL-6, TNF-α, cat no. K15052D, Meso Scale Discovery) according to manufacturer's instructions. […] The plates were washed as before, and 150 μl of read buffer (diluted 1 in 2 in dH2O) was added to each well. The plates were then analysed on a SECTOR Imager 6000 (Meso Scale Discovery).

Molecule	levels of IL-1β (Campath 10 μg/ml, other reagents 100-0.00128 nM)	induction of inflammatory cytokines (IFN-γ, IL-6, TNF-α) (100-0.00128 nM, compared with PBS- and NegCtrl BYbe-treated wells)
Campath: anti-CD52, clinical grade, indicated by FDA for B-cell Chronic Lymphocytic Leukaemia; positive control [reference compound]	marked level	–
B1	–	little or no induction
